The supplement of paper PMC10126150
± gives the standard deviation of the averaged measurements.

test system: ATP; assay: switch fluorescence ratio, 500 uM ATP over buffer (Cy3 cluster intensity, sum of 5 cycles each) (fold (ratio)); higher = stronger signal-on switching upon ATP binding; sequences stand for … in TCGTCGGCAGCGTCAGATGTGTATAAGAGACAGTTTTTTTTTTTTTTTTTTTTTTTTT…TC; details: aptamer strand: ATP DNA aptamer (quencher-CACCTGGGGGAGTATTGCGGAGGAAGG + anchor), 100 nM annealed; ATP concentration: 500 uM
Method in brief: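 Per cluster, summed Cy3 intensity from the target cycles was divided by that from the buffer cycles to give the fluorescence ratio, then averaged per switch-domain sequence. Clusters outside 100-1000 RFU were excluded. The Cy3-labelled switching-strand clusters, on a modified Illumina MiSeq flow-cell, were annealed to 100 nM quencher-labelled ATP aptamer and imaged in selection buffer, then after 15 min with 500 uM ATP at 22 °C, for five cycles with NaOH stripping and re-annealing between them.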
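Further: ATP exposure 15 min at 22 °C before imaging.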

Sequence	switch fluorescence ratio
TGCCCTTTTT	1.01 ± 0.095
TGCCGATCAG	0.993 ± 0.05
TGCCGCAAAA	1.82 ± 0.85
TGCCGGGGGC	1.04 ± 0.025
TGCCGGGGTT	1.1 ± 0.2
TGCCGGTAAA	1.01 ± 0.051
TGCCTAACTT	1.019 ± 0.0066
TGCCTAAGAT	1 ± 0.021
TGCCTCTTTT	0.9886 ± 0.006
TGCCTTATGG	0.983 ± 0.045
TGCCTTATTT	0.9999 ± 0.0049
TGCCTTGCTT	1.01 ± 0.023
TGCCTTTTTT	1 ± 0.016
TGCGAAACTT	1.07 ± 0.011
TGCGAATTCG	0.996 ± 0.037
TGCGACCATT	1.03 ± 0.04
TGCGAGATTT	1.01 ± 0.018
TGCGAGGATG	1 ± 0.0028
TGCGAGGGGA	1.01 ± 0.032
TGCGAGGTCA	1.03 ± 0.022
TGCGATATTA	1.02 ± 0.031
TGCGATGGTC	1.18 ± 0.065
TGCGATTATG	1.02 ± 0.041
TGCGATTTGT	1.04 ± 0.043
TGCGCAATTT	1.205 ± 0.0054

Sequence	switch fluorescence ratio
TGCGCCTCAG	1.08 ± 0.074
TGCGGCCGGG	1.01 ± 0.012
TGCGGCGACG	0.993 ± 0.015
TGCGGCTGGG	0.978 ± 0.019
TGCGGCTTCG	0.913 ± 0.061
TGCGGGCTAG	1.01 ± 0.015
TGCGGGGTAC	1.25 ± 0.045
TGCGGGGTCA	1.02 ± 0.034
TGCGGGTAAT	0.9985 ± 0.0046
TGCGGGTGGG	1.03 ± 0.026
TGCGGGTTAG	0.984 ± 0.032
TGCGGTCCTG	1 ± 0.017
TGCGGTCGCG	0.959 ± 0.012
TGCGGTGTGC	1.04 ± 0.017
TGCGTAGGGT	0.967 ± 0.011
TGCGTAGTTA	0.987 ± 0.012
TGCGTCAAAT	0.999 ± 0.024
TGCGTCCCAA	1.34 ± 0.021
TGCGTCGGCG	1 ± 0.013
TGCGTGAAGT	1.041 ± 0.0091
TGCGTTGGTG	1.006 ± 0.0061
TGCTAAAGGT	0.9836 ± 0.0095
TGCTACAGGA	1.02 ± 0.0049
TGCTACTGC	1.03 ± 0.015
TGCTAGAAGT	0.9792 ± 0.003

Sequence	switch fluorescence ratio
TGCTATAAAG	0.988 ± 0.043
TGCTATAATG	1.02 ± 0.021
TGCTATATTA	0.99152 ± 0.00065
TGCTCAATGA	0.9737 ± 0.0075
TGCTGAGTTT	1.01 ± 0.05
TGCTGCCTAC	2.38 ± 1.6
TGCTGCGGTG	0.993 ± 0.0084
TGCTGGAAGT	0.977 ± 0.032
TGCTGGACTT	0.987 ± 0.015
TGCTGGATT	0.983 ± 0.025
TGCTGGATTA	1.01 ± 0.031
TGCTGGCCGG	0.98 ± 0.022
TGCTGGCTGG	0.973 ± 0.0016
TGCTGGGGAA	1.01 ± 0.028
TGCTGGGTAT	0.9954 ± 0.0031
TGCTGGGTCC	1.02 ± 0.02
TGCTGGGTTT	0.998 ± 0.011
TGCTGTTGGC	0.928 ± 0.025
TGCTTCATGT	0.985 ± 0.027
TGCTTGTATT	1.01 ± 0.027
TGCTTGTTAG	0.989 ± 0.07
TGCTTTAAAG	1 ± 0.037
TGCTTTAGGG	0.965 ± 0.029
TGGAAAAGGG	1.032 ± 0.0082
TGGAACCGGA	1.02 ± 0.011

Sequence	switch fluorescence ratio
TGGAACTTAT	0.997 ± 0.056
TGGAAGAAAT	1.02 ± 0.011
TGGAAGAGGG	1 ± 0.018
TGGAAGGGG	1.02 ± 0.015
TGGAAGGTT	0.987 ± 0.019
TGGAATTAAC	1.02 ± 0.042
TGGAATTACT	1.26 ± 0.36
TGGAATTTGG	1 ± 0.038
TGGACAAATT	1.02 ± 0.022
TGGACATGTG	1.05 ± 0.1
TGGACCGGTC	0.996 ± 0.01
TGGACGGGGC	1.034 ± 0.0099
TGGAGAAAGT	1.03 ± 0.067
TGGAGAGGGG	0.996 ± 0.05
TGGAGAGTGT	0.963 ± 0.036
TGGAGGGGCT	0.987 ± 0.046
TGGAGGTCCG	1.06 ± 0.023
TGGAGTAACT	1.0876 ± 0.00087
TGGAGTCCGG	0.987 ± 0.036
TGGAGTTTAA	1 ± 0.026
TGGATAGAGT	0.985 ± 0.02
TGGATAGGCA	0.986 ± 0.012
TGGATAGGTA	0.995 ± 0.023
TGGATATGAC	1 ± 0.015
TGGATCAAGT	1.01 ± 0.06

Sequence	switch fluorescence ratio
TGGATGATAT	0.9913 ± 0.008
TGGATGTCTG	0.978 ± 0.044
TGGATTAAGT	1.02 ± 0.042
TGGATTATGT	1.005 ± 0.0045
TGGATTGGGT	1 ± 0.046
TGGCACAGTG	0.996 ± 0.019
TGGCACGCGG	0.986 ± 0.019
TGGCACGTAT	1.09 ± 0.03
TGGCAGAAGG	1.06 ± 0.076
TGGCAGTAAA	1.02 ± 0.039
TGGCATATTT	1.05 ± 0.051
TGGCATTGGT	0.983 ± 0.014
TGGCCGACTT	1.02 ± 0.02
TGGCCGCTTT	1.03 ± 0.03
TGGCCGGAAT	1.04 ± 0.03
TGGCCTAACT	1.02 ± 0.042
TGGCCTTCGT	1.13 ± 0.049
TGGCGAGAGG	1 ± 0.022
TGGCGATTGG	0.985 ± 0.023
TGGCGGATTT	0.998 ± 0.031
TGGCGGGGAC	1.1 ± 0.17
TGGCGGGGGC	1.02 ± 0.011
TGGCGGTAGT	1.06 ± 0.056
TGGCGTTGGG	1.02 ± 0.046
TGGCTCCCGC	1.089 ± 0.0041

Sequence	switch fluorescence ratio
TGGCTCGAGC	1.01 ± 0.017
TGGCTCGGCT	1.03 ± 0.051
TGGCTGAGAA	0.9723 ± 0.0028
TGGCTGATTT	1.003 ± 0.0053
TGGCTGCTGG	0.949 ± 0.013
TGGCTGGAAC	0.981 ± 0.021
TGGCTGGGCT	1.03 ± 0.05
TGGCTTGGGG	1.03 ± 0.051
TGGGAAAGCC	0.981 ± 0.012
TGGGAAAGCG	1 ± 0.024
TGGGAACCAA	1.02 ± 0.022
TGGGAAGGTT	1.02 ± 0.041
TGGGAATACG	1.11 ± 0.048
TGGGAATGCC	0.994 ± 0.025
TGGGAATGGT	1.01 ± 0.048
TGGGACGCCT	1.06 ± 0.14
TGGGACGGGT	0.968 ± 0.052
TGGGACGGTC	1.1 ± 0.051
TGGGACTGGG	1.01 ± 0.06
TGGGAGAAGT	0.983 ± 0.011
TGGGAGCAGG	1.05 ± 0.079
TGGGAGGG	1.04 ± 0.013
TGGGAGGGGG	0.991 ± 0.036
TGGGAGTTCA	0.971 ± 0.01
TGGGATCCGC	1.03 ± 0.056

Sequence	switch fluorescence ratio
TGGGATGGAA	1.004 ± 0.0031
TGGGATGGAG	0.976 ± 0.037
TGGGATGTTG	1 ± 0.052
TGGGATTAAG	0.987 ± 0.034
TGGGCAAAAA	1.01 ± 0.011
TGGGCAAAGT	0.9863 ± 0.0074
TGGGCAAGGA	1.02 ± 0.028
TGGGCACGGT	0.969 ± 0.049
TGGGCAGATG	0.989 ± 0.016
TGGGCCGAGG	1.12 ± 0.063
TGGGCGAACG	0.9626 ± 0.0022
TGGGCGAGAA	0.9685 ± 0.0052
TGGGCGGTGC	1.93 ± 1.2
TGGGCTAAAT	0.987 ± 0.027
TGGGGAAAAG	1.09 ± 0.31
TGGGGAAAGA	1.01 ± 0.034
TGGGGAAATG	0.997 ± 0.029
TGGGGAAATT	1.01 ± 0.022
TGGGGAAGGG	0.989 ± 0.039
TGGGGAAGTT	1 ± 0.034
TGGGGAATTC	1.53 ± 0.86
TGGGGACCCT	0.991 ± 0.014
TGGGGACCGG	1.01 ± 0.027
TGGGGACCTT	1 ± 0.0032
TGGGGACGGT	1.01 ± 0.012

Sequence	switch fluorescence ratio
TGGGGAGATA	1.01 ± 0.018
TGGGGAGGGT	1.01 ± 0.035
TGGGGATAAC	0.969 ± 0.034
TGGGGCAAAC	1.87 ± 0.81
TGGGGCAGGT	0.997 ± 0.051
TGGGGCATTT	1 ± 0.036
TGGGGCCCCA	1.01 ± 0.046
TGGGGCCCGA	1.02 ± 0.037
TGGGGCCTAA	1.02 ± 0.013
TGGGGCCTTA	0.952 ± 0.018
TGGGGCGACT	0.991 ± 0.021
TGGGGCGGAG	0.979 ± 0.031
TGGGGCGGCG	0.976 ± 0.03
TGGGGCGTGC	1.06 ± 0.065
TGGGGCGTTG	1.01 ± 0.019
TGGGGGAACT	0.996 ± 0.019
TGGGGGAAGA	1.03 ± 0.069
TGGGGGAAGT	1.01 ± 0.029
TGGGGGAATA	0.999 ± 0.03
TGGGGGACAG	1 ± 0.029
TGGGGGACGG	1 ± 0.035
TGGGGGAGA	1.04 ± 0.017
TGGGGGAGTT	0.994 ± 0.026
TGGGGGATTA	0.999 ± 0.021
TGGGGGCAAA	0.987 ± 0.03
